# Test results published in patent US7662633B2, “Method of screening for inhibitors of osteopontin” (GlaxoSmithKline LLC, priority 2000, dated 2010).
# Ends that are not written are not given here.
# Experiments:
# Assay type in all cases: cell-based
# [1] = biological target: T1, α4β1 (Homo sapiens, UniProt P05556+P13612); test: J6 cell adhesion to GST-CS-1 (CS-1 fragment of fibronectin); details: for Relative potency compared to parent peptide SVVYGLR against α4β1 (J6 adhesion to GST-CS-1): SVVYGLR peptide with the residue mutated to alanine; for Inhibition of J6 cell adhesion to GST-CS-1 by synthetic peptide (α4β1-CS-1 interaction): varying peptide concentrations, 35 min 37° C.
# T1 construct: Of the integrins analysed J6 express only α5β1 and α4βwhile HL60 express α4β1 and α5β1 and αLβ2; endogenous in cells; host or cells: J6 cells
# T1 sequence (P05556 21-798, one chain of several): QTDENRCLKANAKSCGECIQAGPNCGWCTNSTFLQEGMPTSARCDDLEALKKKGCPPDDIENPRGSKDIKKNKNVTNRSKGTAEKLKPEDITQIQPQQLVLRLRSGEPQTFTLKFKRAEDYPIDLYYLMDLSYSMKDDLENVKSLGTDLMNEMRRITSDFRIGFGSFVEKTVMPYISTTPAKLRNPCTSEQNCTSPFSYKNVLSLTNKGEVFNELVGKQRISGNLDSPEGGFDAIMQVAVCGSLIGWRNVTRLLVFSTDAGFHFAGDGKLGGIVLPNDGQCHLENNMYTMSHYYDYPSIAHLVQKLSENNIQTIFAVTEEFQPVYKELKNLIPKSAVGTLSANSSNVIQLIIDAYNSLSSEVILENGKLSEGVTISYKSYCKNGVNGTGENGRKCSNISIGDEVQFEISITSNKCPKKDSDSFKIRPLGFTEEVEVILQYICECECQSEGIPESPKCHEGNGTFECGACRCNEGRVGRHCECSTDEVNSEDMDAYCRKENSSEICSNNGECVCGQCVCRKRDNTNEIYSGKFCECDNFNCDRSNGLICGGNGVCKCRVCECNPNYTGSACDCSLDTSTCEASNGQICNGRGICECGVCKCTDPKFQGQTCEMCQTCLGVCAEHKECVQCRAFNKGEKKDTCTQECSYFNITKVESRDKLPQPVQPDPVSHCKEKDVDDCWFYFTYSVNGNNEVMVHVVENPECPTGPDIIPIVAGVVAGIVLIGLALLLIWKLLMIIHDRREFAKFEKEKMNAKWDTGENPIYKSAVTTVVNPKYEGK
# Description: (§1) All proteins were coated onto MAXISORP plates (Nunc) overnight at 4° C. Each protein was diluted in PBS at the concentrations indicated, and a total volume of 100 μl added per well. Plates were washed twice in PBS then blocked with 3% BSA/PBS for 1 hr at 37° C., and finally washed twice in PBS. Routinely HL60 cells were pelleted and washed once in HBSS (Sigma) then spread in 25 mM Hepes 7.5, HBSS at 2×10^6 ml^−1 (100 μl per well) in the presence of 0.2 mM MnCl2 and 50 ng/ml TPA, with other additions as indicated. J6 cells were likewise pelleted and washed once in HBSS (Sigma) then spread in 25 mM Hepes (pH7.5), HBSS at 2×10^6ml^−1 (100 μl per well) in the presence of 0.2 mM MnCl2 and other additions as indicated. For antibody inhibition cells were preincubated with the antibody (10 μg/ml) on ice for 10 minutes. Cells were then allowed to attach for 35 minutes at 37° C., washed twice in PBS, once in ethanol, and fixed in ethanol for 20 minutes at room temperature. For quantitation cells were visualised by staining with 0.1% crystal violet (Sigma) for 10 minutes then lysed in 0.5% TRITON X-100 (Sigma) and read at 570 nm in a Wallac Victor plate reader.
# [2] = biological target: T2, α4β7 (Homo sapiens, UniProt P13612+P26010); test: α4β7 adhesion assay: RPMI8866 cell adhesion to zz-MAdCAM; details: for Relative potency compared to parent peptide SVVYGLR against α4β7 (RPMI8866 adhesion to zz-MAdCAM): SVVYGLR peptide with the residue mutated to alanine; for Inhibition of RPMI8866 cell adhesion to zz-MAdCAM by synthetic peptide: varying peptide concentrations, 20 min 37° C.
# T2 construct: RPMI8866 cells which express α4β7, and small amounts of α4β1 and α5β1 were used; endogenous in cells; host or cells: RPMI8866 cells
# T2 sequence (P13612 34-1032): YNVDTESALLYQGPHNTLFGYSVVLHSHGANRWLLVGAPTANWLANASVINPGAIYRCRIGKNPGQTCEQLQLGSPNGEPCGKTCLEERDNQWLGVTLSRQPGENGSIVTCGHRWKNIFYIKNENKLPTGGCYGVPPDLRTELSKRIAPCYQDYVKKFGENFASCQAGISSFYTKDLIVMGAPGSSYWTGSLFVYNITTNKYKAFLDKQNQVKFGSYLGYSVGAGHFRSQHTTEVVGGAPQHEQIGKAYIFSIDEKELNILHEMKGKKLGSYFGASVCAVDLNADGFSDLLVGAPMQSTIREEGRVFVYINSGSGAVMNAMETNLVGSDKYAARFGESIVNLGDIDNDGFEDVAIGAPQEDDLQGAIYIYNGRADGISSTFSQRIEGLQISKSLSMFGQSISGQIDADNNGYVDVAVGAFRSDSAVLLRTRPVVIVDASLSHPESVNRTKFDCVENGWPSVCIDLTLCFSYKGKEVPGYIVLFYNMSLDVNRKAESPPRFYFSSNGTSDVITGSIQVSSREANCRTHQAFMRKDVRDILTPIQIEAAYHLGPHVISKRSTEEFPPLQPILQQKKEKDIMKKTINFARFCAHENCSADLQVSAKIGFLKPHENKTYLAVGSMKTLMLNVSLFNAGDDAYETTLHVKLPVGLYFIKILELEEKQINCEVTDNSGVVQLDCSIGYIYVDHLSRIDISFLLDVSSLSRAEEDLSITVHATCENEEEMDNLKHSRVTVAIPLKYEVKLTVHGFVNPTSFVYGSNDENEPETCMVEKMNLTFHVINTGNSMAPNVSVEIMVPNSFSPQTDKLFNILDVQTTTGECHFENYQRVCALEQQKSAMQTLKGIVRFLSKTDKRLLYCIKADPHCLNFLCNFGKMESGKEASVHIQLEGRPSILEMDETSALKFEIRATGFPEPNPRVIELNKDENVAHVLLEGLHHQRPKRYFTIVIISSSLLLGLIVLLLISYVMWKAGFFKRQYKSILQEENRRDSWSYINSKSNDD
# T2 sequence (P26010 20-798): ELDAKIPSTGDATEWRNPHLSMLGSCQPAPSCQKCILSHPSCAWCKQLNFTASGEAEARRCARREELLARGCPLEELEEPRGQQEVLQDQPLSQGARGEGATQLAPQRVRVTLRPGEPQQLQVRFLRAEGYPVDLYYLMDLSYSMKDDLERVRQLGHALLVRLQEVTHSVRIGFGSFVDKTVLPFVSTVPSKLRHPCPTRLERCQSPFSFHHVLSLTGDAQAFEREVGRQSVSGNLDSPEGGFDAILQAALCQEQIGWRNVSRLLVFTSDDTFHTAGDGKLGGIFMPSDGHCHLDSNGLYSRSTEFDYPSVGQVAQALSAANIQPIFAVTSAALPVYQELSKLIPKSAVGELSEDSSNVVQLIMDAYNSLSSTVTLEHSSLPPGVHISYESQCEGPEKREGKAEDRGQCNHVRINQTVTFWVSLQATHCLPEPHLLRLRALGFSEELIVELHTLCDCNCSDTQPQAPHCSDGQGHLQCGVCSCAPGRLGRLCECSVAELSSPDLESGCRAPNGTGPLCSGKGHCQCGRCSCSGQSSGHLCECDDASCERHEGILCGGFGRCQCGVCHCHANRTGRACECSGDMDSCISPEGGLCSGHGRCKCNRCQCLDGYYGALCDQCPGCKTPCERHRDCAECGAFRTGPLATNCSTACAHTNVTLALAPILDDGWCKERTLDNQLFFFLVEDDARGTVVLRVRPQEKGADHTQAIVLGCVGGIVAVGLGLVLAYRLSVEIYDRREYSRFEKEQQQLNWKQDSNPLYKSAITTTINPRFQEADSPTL
# Description: The recombinant zz-MAdCAM was absorbed onto Maxisorp plate pre-coated for 2.5 hours at 37° C. with 100 μL of human IgG, and then washed twice with PBS. For capture the recombinant zz-MAdCAM was diluted to the appropriate concentration in 3% BSA/PBS, 100 μl added to each well, and incubated overnight at 4° C. Prior to use plates were washed twice in PBS.
# For the α4β7 adhesion assay RPMI8866 cells were washed in cation free HBSS supplemented with 1 mM EDTA, pelleted and labelled by incubating with BCECF (Molecular Probes) in cation-free HBSS at 37° C. for 10 minutes. At this stage cells were also co-incubated with […] human IgG to block endogenous Fc receptors. Cells were then washed once more in cation-free HBSS and then used in the adhesion assay at a final concentration of 3×10^6 cells ml^−1 in the presence of the appropriate treatment as indicated. To prevent cells clumping the assay plate was finally centrifuged at 400 rpm for 3 minutes without the brake. Cells were then incubated for 20 minutes at 37° C. and then washed twice in PBS before reading directly in a plate reader. For antibody inhibition studies the cells were preincubated with the appropriate antibody at […] for 5 minutes at room temperature prior to being placed in the incubator.
# [3] = biological target: T1, α4β1; test: J6 cell adhesion to GST fusion proteins of osteopontin (OPN); details: 0.2 mM MnCl2, 35 min 37° C.
# Description: as §1
# [4] = test system: α4β1; test: J6 cell adhesion to GST-CS-1 (CS-1 fragment of fibronectin); details: J6/CS-1 versus RPMI8866/zz-MAdCAM
# Description: as §1
substance,measurement,setting,value
"Val164: SVVYGLR synthetic peptide in which Val164 is mutated to alanine (SVAYGLR; SVVYGLR peptide; UniProt P10451 162-168, looked up, variant V164A)",Relative potency compared to parent peptide SVVYGLR against α4β1 (J6 adhesion to GST-CS-1),[1],minor contribution to binding
same,Relative potency compared to parent peptide SVVYGLR against α4β7 (RPMI8866 adhesion to zz-MAdCAM),[2],minor contribution to binding
"aa132-146: GST fusion protein of OPN aa132-146 (LVTDFPTDLPATEVF; also: GST fusion protein; UniProt P10451 132-146, looked up, fragment)",Ability of coated GST-OPN fusion protein to support J6 cell adhesion,[3],supported J6 cell adhesion
"Val163: SVVYGLR synthetic peptide in which Val163 is mutated to alanine (SAVYGLR; SVVYGLR peptide; UniProt P10451 162-168, looked up, variant V163A)",Relative potency compared to parent peptide SVVYGLR against α4β1 (J6 adhesion to GST-CS-1),[1],reduced the potency
same,Relative potency compared to parent peptide SVVYGLR against α4β7 (RPMI8866 adhesion to zz-MAdCAM),[2],reduced the potency
"Tyr165: SVVYGLR synthetic peptide in which Tyr165 is mutated to alanine (SVVAGLR; SVVYGLR peptide; UniProt P10451 162-168, looked up, variant Y165A)",Relative potency compared to parent peptide SVVYGLR against α4β1 (J6 adhesion to GST-CS-1),[1],reduced the potency
same,Relative potency compared to parent peptide SVVYGLR against α4β7 (RPMI8866 adhesion to zz-MAdCAM),[2],reduced the potency
aa17-168RAD: GST fusion of thrombin cleaved OPN fragment with RGD motif mutated to RAD,Ability of coated GST-OPN fusion protein to support J6 cell adhesion,[3],did not affect binding
"Gly166: SVVYGLR synthetic peptide in which Gly166 is mutated to alanine (SVVYALR; SVVYGLR peptide; UniProt P10451 162-168, looked up, variant G166A)",Selectivity between α4β1 and α4β7 on mutating the residue,[4],introduces a degree of selectivity
FPTDLPA (listed as Homo sapiens) [synthetic peptide of OPN aa136-142],Inhibition of J6 cell binding to CS-1 over the scrambled control at lower matrix concentrations,"[1]; lower matrix concentrations, data not shown",weak inhibition
same,Inhibition of J6 cell adhesion to GST-CS-1 by synthetic peptide (α4β1-CS-1 interaction),[1],unable to inhibit binding to CS-1
aa17-314: GST fusion protein representing full length human OPN,Ability of coated GST-OPN fusion protein to support J6 cell adhesion,[3],adhered
"GRVLYSV (Synthesized and/or Homo sapiens) [scrambled control peptide of SVVYGLR, reference compound]",Inhibition of RPMI8866 cell adhesion to zz-MAdCAM by synthetic peptide,[2],no effect
"SVVYGLR-CONH2 (SVVYGLR-NH2; listed as Homo sapiens) [SVVYGLR (SEQ ID NO: 4)-CONH2, capped peptide lacking the acidic carboxy terminus]",Inhibition of J6 cell adhesion to GST-CS-1 by synthetic peptide (α4β1-CS-1 interaction),[1],abrogated the ability
same,Inhibition of RPMI8866 cell adhesion to zz-MAdCAM by synthetic peptide,[2],abrogated the ability
"aa115-168: GST fusion, N-terminal deletion of the thrombin cleaved OPN fragment",Ability of coated GST-OPN fusion protein to support J6 cell adhesion,[3],bound
"SVVYGLR (VARIANT 2 The carboxy terminal end can be, for example COO-, COOH, or CONH2, see specification, for example Figures 10, 11, and 13; listed as Homo sapiens) [synthetic peptide of OPN aa162-168]",Potency at blocking J6 adhesion to CS-1 compared with the CS-1 peptide itself,[1],only slightly less potent
same,Inhibition of J6 cell adhesion to GST-CS-1 by synthetic peptide (α4β1-CS-1 interaction),[1],blocked adhesion to CS-1
same,Inhibition of RPMI8866 cell adhesion to zz-MAdCAM by synthetic peptide,[2],inhibited adhesion
"Leu167: SVVYGLR synthetic peptide in which Leu167 is mutated to alanine (SVVYGAR; SVVYGLR peptide; UniProt P10451 162-168, looked up, variant L167A)",Relative potency compared to parent peptide SVVYGLR against α4β1 (J6 adhesion to GST-CS-1),[1],relative potency similar to that observed with the blocked peptide
same,Relative potency compared to parent peptide SVVYGLR against α4β7 (RPMI8866 adhesion to zz-MAdCAM),[2],relative potency similar to that observed with the blocked peptide
aa17-168: GST fusion protein representing the thrombin cleaved fragment of OPN,Ability of coated GST-OPN fusion protein to support J6 cell adhesion,[3],adhered
"aa153-168: GST fusion protein of OPN aa153-168, Gly of RGD mutated to Ala (VDTYDGRADSVVYGLR; also: GST fusion protein)",Ability of coated GST-OPN fusion protein to support J6 cell adhesion,[3],supported J6 cell adhesion
"aa125-168: GST fusion, N-terminal deletion of the thrombin cleaved OPN fragment",Ability of coated GST-OPN fusion protein to support J6 cell adhesion,[3],bound
"Arg168: SVVYGLR synthetic peptide in which Arg168 is mutated to alanine (SVVYGLA; SVVYGLR peptide; UniProt P10451 162-168, looked up, variant R168A)",Relative potency compared to parent peptide SVVYGLR against α4β1 (J6 adhesion to GST-CS-1),[1],more potent
same,Selectivity between α4β1 and α4β7 on mutating the residue,[4],introduces a degree of selectivity
same,Relative potency compared to parent peptide SVVYGLR against α4β7 (RPMI8866 adhesion to zz-MAdCAM),[2],less potent
